The target of this assay is Alkaline Phosphatase, Germ Cell (ALPG) expressed on K562-ALPG and K562-ALPG/MSLN target cells (UniProt P10696).
Chain of Alkaline Phosphatase, Germ Cell (ALPG) expressed on K562-ALPG and K562-ALPG/MSLN target cells (P10696 20-503): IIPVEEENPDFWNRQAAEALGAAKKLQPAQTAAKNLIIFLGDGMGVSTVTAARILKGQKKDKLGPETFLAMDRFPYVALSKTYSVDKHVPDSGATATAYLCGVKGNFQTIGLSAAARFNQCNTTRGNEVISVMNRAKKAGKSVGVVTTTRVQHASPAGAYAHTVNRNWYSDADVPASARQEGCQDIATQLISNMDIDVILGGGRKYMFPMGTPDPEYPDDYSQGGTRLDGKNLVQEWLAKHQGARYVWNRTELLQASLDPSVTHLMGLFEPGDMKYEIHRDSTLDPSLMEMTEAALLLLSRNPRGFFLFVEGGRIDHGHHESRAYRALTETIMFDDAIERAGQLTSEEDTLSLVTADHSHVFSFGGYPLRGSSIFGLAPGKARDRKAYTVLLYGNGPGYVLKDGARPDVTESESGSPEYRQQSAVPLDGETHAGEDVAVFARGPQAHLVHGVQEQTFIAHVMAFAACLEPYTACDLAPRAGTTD

B1: Myc-tag ALPG/P priming receptor: anti-ALPG/P scFv-CD8α hinge-Notch1 TMD-Notch1 STS-HNF1aDBD-p65 activation domain (protein, not shown: small tags and cut ends)
chain: DIQMTQSPSSLSASVGDRVTITCRASENIYSYVAWYQQKPGKAPKLLIYNAKSLASGVPSRFSGSGSGTDFTLTISSLQPEDFATYYCQHHYVSPWTFGGGTKLEIKGGGGSGGGGSGGGGSQVQLQESGPGLVKPSETLSLTCTVSGFSLTSYGVSWIRQPAGKGLEWIGVIWEDGSTNYHSALISRVTMSVDTSKNQFSLKLSSVTAADTAVYYCARPHYGSSYVGAMEYWGAGTTVTVSSATTTPAPRPPTPAPTIASQPLSLRPEACFMYVAAAAFVLLFFVGCGVLLSRKRRRQHGQLWFPEGFKVSEASKKKRREPLGEDSVGLKPLKNAMVSKLSQLQTELLAALLESGLSKEALLQALGEPGPYLLAGEGPLDKGESCGGGRGELAELPNGLGETRGSEDETDDDGEDFTPPILKELENLSPEEAAHQKAVVETLLQEDPWRVAKMVKSYLQQHNIPQREVVDTTGLNQSHLSQHLNKGTPMKTQKRAALYTWYVRKQREVAQQFTHAGQGGLIEEPTGDELPTKKGRRNRFKWGPASQQILFQAYERQKNPSKEERETLVEECNRAECIQRGVSPSQAQGLGSNLVTEVRVYNWFANRRKEEAFRHKLAMTCRDEFPTMVFPSGQISQASALAPAPPQVLPQAPAPAPAPAMVSALAQAPAPVPVLAPGPPQAVAPPAPKPTQAGEGTLSEALLQLQFDDEDLGALLGNSTDPAVFTDLASVDNSEFQQLLNQGIPVAPHTTEPMLMEYPEAITRLVTGAQRPPDPAPAPLGAPGLPNGLLSGDEDFSSIADMDFSALLSQISS
B1 had a % of LG1 T cells CAR+ PrimeR+ (upper right quadrant) after 72 h with K562 ALPG high, 1:1 of 0.043%; a % of LG1 T cells CAR+ PrimeR+ (upper right quadrant) after 72 h with K562 ALPG low, 1:1 of 0.25%; a % of LG1 T cells CAR+ PrimeR+ (upper right quadrant), T cells alone, no ALPG cells (baseline) of 1.11%; a % of LG1 T cells CAR+ PrimeR- (upper left quadrant) after 72 h with K562 ALPG high, 1:1 of 5.29%. The % of LG1 T cells CAR+ PrimeR- (upper left quadrant) after 72 h with K562 ALPG low, 1:1 was found to be 5.88%; the % of LG1 T cells CAR+ PrimeR- (upper left quadrant; FLAG APC vs myc PE), T cells alone, no ALPG cells (baseline) stood at 0.12%; the % of LG1 T cells PrimeR+ CAR- (lower right quadrant) after 72 h with K562 ALPG high, 1:1 turned out to be 0.043%; the % of LG1 T cells PrimeR+ CAR- (lower right quadrant) after 72 h with K562 ALPG low, 1:1 was found to be 0.44%. In addition, the % of LG1 T cells PrimeR+ CAR- (lower right quadrant), T cells alone, no ALPG cells (baseline) amounted to 12%.

For the origin of these results see patent publication US20250250350A1.
